Assay results taken from publication PMC2580030.
“And” between values parts separate entries of the source, which are not always exact repeats. Identical values can stand only once.

molecular target: recombinant soluble empty (peptide free) HLA-DR1 (human); test: fluorescence polarisation

| Substance | loss of bound peptide during the first 24 hr |
| --- | --- |
| FAM labeled P7 L→C HA peptide | 18% and 3% |

molecular target: recombinant soluble empty (peptide free) HLA-DR1 (human); test: native gel or EMSA

| Substance | t1/2 [min] |
| --- | --- |
| HA 306-318 P2,3 VK→SD peptide, fluorescein-labeled | 4.6 |
| HA 306-318 P2,7 VL→SP peptide, fluorescein-labeled | 40.4 |
| HA 306-318 P2,7,10 VLA→SPG peptide, fluorescein-labeled | 9.9 |
| HA 306-318 P2,10 VA→SG peptide, fluorescein-labeled | 11.7 |
| HA 306-318 P3 K→D peptide, fluorescein-labeled | 43.8 |
| HA 306-318 P3,7 KL→DP peptide, fluorescein-labeled | 15.9 |
| HA 306-318 P3,10 KA→DG peptide, fluorescein-labeled | 7.92 |
| HA 306-318 P7 L→P peptide, fluorescein-labeled | 268 |
| HA 306-318 P7,10 LA→PG peptide, fluorescein-labeled | 92.9 |
| HA 306-318 P10 A→G peptide, fluorescein-labeled | 69 |
